Data published in patent publication US20020160496A1 (DUKE UNIVERSITY, published 2002).

Molecular target: the molecule itself
Assay: blue native PAGE (BN-PAGE) of native, heat shocked and bis-ANS treated GRP94; self-association

B1: GRP94 (glucose regulated protein of 94 kDa) purified from porcine pancreas (other, UniProt Q29092 22-804, looked up)
chain: EDEVDVDGTVEEDLGKSREGSRTDDEVVQREEEAIQLDGLNASQIRELREKSEKFAFQAEVNRMMKLIINSLYKNKEIFLRELISNASDALDKIRLISLTDENALAGNEELTVKIKCDKEKNLLHVTDTGVGMTREELVKNLGTIAKSGTSEFLNKMAEAQEDGQSTSELIGQFGVGFYSAFLVADKVIVTSKHNNDTQHIWESDSNEFSVIADPRGNTLGRGTTITLVLKEEASDYLELDTIKNLVKKYSQFINFPIYVWSSKTETVEEPMEEEEAAKEEKEESDDEAAVEEEEEEKKPKTKKVEKTVWDWELMNDIKPIWQRPSKEVEDDEYKAFYKSFSKESDDPMAYIHFTAEGEVTFKSILFVPTSAPRGLFDEYGSKKSDYIKLYVRRVFITDDFHDMMPKYLNFVKGVVDSDDLPLNVSRETLQQHKLLKVIRKKLVRKTLDMIKKIADEKYNDTFWKEFGTNIKLGVIEDHSNRTRLAKLLRFQSSHHPSDITSLDQYVERMKEKQDKIYFMAGSSRKEAESSPFVERLLKKGYEVIYLTEPVDEYCIQALPEFDGKRFQNVAKEGVKFDESEKSKENREAVEKEFEPLLNWMKDKALKDKIEKAVVSQRLTESPCALVASQYGWSGNMERIMKAQAYQTGKDISTNYYASQKKTFEINPRHPLIRDMLRRVKEDEDDKTVSDLAVVLFETATLRSGYLLPDTKAYGDRIERMLRLSLNIDPDAKVEEEPEEEPEETTEDTTEDTEQDDDEEMDAGADEEEQETSETSTAEKDEL
notes: also called gp96; ERp99
B1: binds.
